Experimental data: the nanobody polyreactivity screen of Harvey et al. (2022)

Assay: yeast display, Sf9 membrane polyspecificity reagent, FACS + sequencing; frameworks hold sequencing errors
Method in brief: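 Using colony PCR, genes from sorted yeast display clones were amplified, then sequenced on MiSeq at 2 × 250 and filtered by CDR length. The clones had been stained with 10% biotinylated, detergent-solubilized Sf9 membrane reagent for 1 hour at 4 °C and sorted by FACS into low and high (top ~1%) gates on anti-HA and streptavidin fluorescence. Polyreactivity labels come from the gate of origin.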

| Sequence | polyreactivity (PSR sort gate) |
| --- | --- |
| QVQLEESRGGLVQAGGSLRLSCAASGITFYTYAMGWYRQAPGKETELVAAITSRTGSTYYADSVKGRFTISRDNAKNTVYLQMNSLKPEDTAVYDCAADRTRGRDGSDYWGQGTQVTVSS | low polyreactivity |
| QVQLEESRGGLVQAGGSLRLSCAASGYIFSYYDMGWYRQAPGKERELVASITSSGGSTYYADSVKGRFTISRDNGKNTVYLQMNSLKPEDTAVYYCNADVYDTYSPLGYYFWGQGTQVTVSS | low polyreactivity |
| QVQLEESRGGLVQAGGSLRLSYPASGRTYVTYAMGWYRQAPGKERELVAAITSGGSTNYADSVKGRFTISRDNAKNTVYLQMNSLKPEDTAVYYCAKAYLWYKGIFDYWGQGTQVTVSS | low polyreactivity |
| QVQLEESVGGLVQAGGSLRLSCAASGRIFAAYAMGWYRQEPGKERELVAAITGSGGRTYYADSVKGRFTISRDNAKNTVYLQMNSLKPEDTAVYYCAAESTPYSSVDRVAVYYWGQGTQVTVSS | high polyreactivity |
| QVQLEESWGVLVQAGCSLRISCAASGRIFAYNAMGSYRQAPGKERELVAAISWRVGSTYYADSVKGRFSISRDNAKNTVYLQMNILKPEDTAVYYCAVGYYRFGRVLGYYWGQGTQVSVSS | high polyreactivity |
| QVQLEETGGGLVQAGGSLRLSCAASGSIFHYNAMGWYRQAPGKEREFVAAITGGGGTYYADSVKGRCTISRDNAKNTVYFQMNSLKPEDTGVYYCAAQSRTSFRFNYWGQVTQVTVSS | high polyreactivity |
| QVQLEETGGGLVQAGGSLRLTCAASVRTFRGNVMGWYREAPGKERELVAAINWTGSSTYYADSVKGRFTISRDNAKNSVYLQMNSLKPEDTAVYYCATRSGPHGGGLPRDYWGQGTQVTVSS | low polyreactivity |
| QVQLEETGGRLVQAGARLRLSCDASGYIFFFYAMGWYRHAPGKERELDASITYRGGSTYYADSVKGRFTLSRDYAKNTVYLQINSLKPEDTAVYYCIVDGGGPLGPHGFPFDYWGQGTQVTVSS | low polyreactivity |
| QVQLEVSGGGLVQAGRSLRLSCAASGSTFYGYAMGWYRQAPGKERELVAAITSSGGSTYYADSVKGRFTISRDNAKNTVYLQMNSLKPEDTAVYYCNAKRAPWGTLYNYWGQGTQVTVSS | high polyreactivity |
| QVQLGDSGGGLVQAGGRLGLSCAASGSTFGRYAMGWYRPAPGKERELVAAISSSGGRTYYADSVKGRFTISRDNAKNTVYLQMNSLKPEDTAVYYCASDARFRQKYEYWGQGTQVTVSS | high polyreactivity |
| QVQLGDSGGGLVQAGGRLRLSCAASGRTIRPYTMGWYRQAPGNERALVAAITSGGGSTYYADSVKGRFTISRDNAKNTVTLQMHSLKPDDTAVYYCAAPRRERWIDVNQHYSWGQGTQVTVSS | low polyreactivity |
| QVQLGDSGGGLVQAGGSLRLSCAASGFNFRTNTMGWYRQEPGKERELVAAITRSGGSTYYADSVKGRFTISSDNAKYTVYLQMNSLKPEDSAVYYCAKEYRRVVADFGYWGQGTQVTVSS | high polyreactivity |
| QVQLGDSGGGLVQAGGSLRLSCAASGRIFYGNAMGWYRQAPWKERELVAAISSGGGSTYYADSVKGRFTISRDNAKNTVYLQMNSLKPEDNAVYYCAADPVPRFPGTGGYWGQGTQVTVSS | low polyreactivity |
| QVQLGDSGGGLVQAGGSLRLSCAASGSIFNKYAMGWYRQAPGKEREFVAPITQGGGRTYYADSVKGRFTISRDNAKNNVYLQMNSLKPEDTAVYYCIYNFNYPYYRYGYWGQGTQVTVSS | high polyreactivity |
| QVQLGESGGGFVQAGGSLRLSCAASGSTFSYNAMGWYIQASGKESEFVAAISSSGGRTYYADSVKWRFTISRDYEKNTVYLQMKSLKPEDTAVYYCPAKSRLPTQGLGMYYWGKGTQVTVSS | high polyreactivity |
| QVQLGESGGGLLQAGGSLRLSCAASGRSFSVNFMGWYRQAPGKDTELVAAIDTSGGSTYYADSVKGRFTISRDNAKNTVYLQMNCLNPEHTAVYVCASGFYGYRSSCYWGQGTQVTVSS | low polyreactivity |
| QVQLGESGGGLVQAGGILRLSCAASGSIFARYAMGWYRQPPGKERELVAAISSNSASTYYADSVKGRFTISRDNAKNTVYLQMNCLIPEDTAVYYCATAYRSYWLNDYWGQGTQVTVSS | low polyreactivity |
| QVQLGESGGGLVQAGGSLRLICAASGRTIRQYAMGRYRQAPGKERELVAAIDSGGSTYYADSVKGRFTISRDNAKNTVYLQMNSLKPEYTAVYYCAKGPSWKYYSYTLDYWGQGTQVTVSS | low polyreactivity |
| QVQLGESGGGLVQAGGSLRLSCAASGFIFSYNAMGWYRQAPWKERELVAAISWRGGSTYYADSVKGRFTISRDNAKNTVYLQMNSLKPEDTAVYYCAAYLWRLWPSGYYYWGQGTQVTVSS | high polyreactivity |
| QVQLGESGGGLVQAGGSLRLSCAASGFIFYVYAMGWYRQAPGKERELVAAISWSGDRTYYADSVKGRFTISRDNAKNTVYLQINSLKPEDTAVYYCAVERSVYSYYYWGQGTQVTVSS | high polyreactivity |
| QVQLGESGGGLVQAGGSLRLSCAASGFPFQGNAMGWSRQAPGKERELLAAISYDGGSSYYADSVKGRFTISRDNAKNTVYLQMNSLKPEDTAVYYCAAYVVTWYYYWGQGTQVTLSS | high polyreactivity |
| QVQLGESGGGLVQAGGSLRLSCAASGFTFAYYAMGWYRQAPGKERELVAAISERGGSTYYADSVKGRFTISRDNAKNTVYLQMNILKPEDTAVYYCARTFWDYPWYQSSYYSWGQGTQVTLSS | low polyreactivity |

| Sequence | polyreactivity (PSR sort gate) |
| --- | --- |
| QVQLGESGGGLVQAGGSLRLSCAASGFTFPVYAMGWYRQAPGKERELVAAISTSAGSTYYADSVKGRFTISRDNAKNTVYLQMNSLKPEDTAVYYCAARRRAFGSTYNYWGQGTQVTVSS | high polyreactivity |
| QVQLGESGGGLVQAGGSLRLSCAASGGIINYYAMGWYRQAPGKEWELVAAITSAGSTYADSVKGRFTISRDNAKNTVYLQMNSLKPDDSAVYYCNAVGFVLKVGYYLIGYAKWYDYWGQGTHVTVSS | low polyreactivity |
| QVQLGESGGGLVQAGGSLRLSCAASGIIFRYYAMGWYRQAPGKERELVAAISSSGVSTYYADSVKGRFTISRDNAQNTVYLQMNSLKPEDTAVYYCAAVTTWRMDYWGQGTQVTVSS | high polyreactivity |
| QVQLGESGGGLVQAGGSLRLSCAASGITFRWYAMGWYRQAPGKERELVAAITSVDSTDYADSVKGRFTISRDNAKNTVYLQMNSLKPEDTAVYYCAAQPYDWFYYYYVIFPHYEYWGQGTQVTVSS | low polyreactivity |
| QVQLGESGGGLVQAGGSLRLSCAASGNIFYANAMGWSRQAPGTERELLAAISGSGGSTYADSVKGRFTISRDNAKNTVYLQMNSLKPVDTAVYYCNASVLDAIFYKSVGYDYWGQGTQVTVSS | low polyreactivity |
| QVQLGESGGGLVQAGGSLRLSCAASGRIFPWNTMGWYRQAPGKERELVAGITSGGSTNYADSVKGRFTISRDNAKNTVYLLMNCLKPEATAVYYCAARGYYWYISGVYEYEYWGQGTQVTLSS | low polyreactivity |
| QVQLGESGGGLVQAGGSLRLSCAASGRTFGLYAMGWYRQAPGKERELVAAISRGTSTNYADSVKGRFTISRDNAKNTVYLEMYSLKPEDTAVYYCNARRKFVGKWGDYWGQGTQVTVSS | low polyreactivity |
| QVQLGESGGGLVQAGGSLRLSCAASGRTFGYNAIGWYRQAPGKEMELVAVIRSGGSTYYADSVKGRFTISRDNAKNTVYLQMNSLKPEDTAVYYCNADVLPTWYSPELDYWGQGTQVTVSS | low polyreactivity |
| QVQLGESGGGLVQAGGSLRLSCAASGRTFYGYPMGWYRQAPGKERELVAAISRNGASTFYADSVKGRFTISRDNAKNTVYLQMNSLKPEDTAVYYCNARSWRHTDTSFEYWGQGTQVTVSS | high polyreactivity |
| QVQLGESGGGLVQAGGSLRLSCAASGRTFYINTMGWYRQAPGKEREFVAAISSGGGRTYYADSVKGRFTISRDNAKNTVYLQMNSLKPEDTAVYYCAAYLGGAEDTYRFGYWGQGTQVTVSS | high polyreactivity |
| QVQLGESGGGLVQAGGSLRLSCAASGRTIGYYAMGWYRQAPGKERELVAAISVSGTNTYYADSVKGRFTISRDNAKNTVNLQMNSLKPEDTAVYYCAARKVSGVYRAFYYWGQGTQVTVSS | high polyreactivity |
| QVQLGESGGGLVQAGGSLRLSCAASGRTITRNAMGWYRQAPGKERELVAAISYSGGSTYYADSVKGRFTISRDNAKNTVYLQMNSLKPEDTAVYYFNAATSRRSIRYDYWGQGTQVTVSS | high polyreactivity |
| QVQLGESGGGLVQAGGSLRLSCAASGSIFGGNTKGWYRQAPGKERELVAAINGGVTTNYADSVKGRFTISRDNAKNTVYLQMNSLKPEDTAVYYCNAVDFGPVVLRLYYWGQGTQVTVSS | low polyreactivity |
| QVQLGESGGGLVQAGGSLRLSCAASGSIFQKYTMGWYRQAPGKERELVAAITRSGGSTYYADSVKGRFTISRDNAKNTVDFQMNSLKPEDTAVYYCAAPAAGDEYDYWGQVTQVTVSS | high polyreactivity |
| QVQLGESGGGLVQAGGSLRLSCAASGSIFTYNPMGWYRQAPGKERELVAAITIDDGSTYYADSVKGRFTISRDNAKNTVYLQMNSLKPEDTAVYYCAADFYGVSYSGGEMDYWGLGTQVTVSS | low polyreactivity |
| QVQLGESGGGLVQAGGSLRLSCAASGSIFYFNAMGWYRQAPGKERELVAAISWSGRTYYADSVKGRFTISRDNAKNTVYLQMNSLKPEDTAVFYCAAKNTGRYYWGQGTQVTVSS | high polyreactivity |
| QVQLGESGGGLVQAGGSLRLSCAASGSILTPYSMGWYRQAPGKERELDAAITFRGGSTYYADSVKGRFTISRDNAKNTVYLQMNSLKPEDTAVYYCAAGWYWSYWDPYDYWGQGTQVTVSS | high polyreactivity |
| QVQLGESGGGLVQAGGSLRLSCAASGSTFYYYAMGWYRQAPGKERELVASINYSAGRTYYADSVKGRFTISRDNAKNTVYLQMNSLKPEDTAVYYCAAETPSGYYPQQYDYYWGQGTQVTVSS | high polyreactivity |
| QVQLGESGGGLVQAGGSLRLSCAGSGRTFQHYFMGWYREAPGKDRELVASITNDDSTNYADSVKGLFTISRDNAKNTVYLQMNRLKPEDTAVYYCAADWTDVVPGYDYWGQGTQVTVSS | low polyreactivity |
| QVQLGESGGGLVQAGGSLRLSCAPSGNPFTIYAMGWYRPAPGKERELVASSTGRGGSTYYADSVKGRFTISRDNEKNTVYLQMNSLKPEDTAVDYCNADYNSYLYRPPTTRDYWGQGTQVTVSS | low polyreactivity |
| QVQLGESGGGLVQAGGSLRLSCASSGRTFVVNAMGWYSQAPGKATEFDAAISYRGDSTYYAVSVKGRFTISRDNAKNTVYLQMNSLKPEATAVYYCAARVLGPGRRYYYWGQCTQVTVSS | high polyreactivity |
